# Patent US20240352105A1, “COMPOSITIONS AND METHODS FOR NEUTRALIZING ANTIGENS” (PACAGEN, INC, priority 2023, published 2024)
# “And” between values parts separate entries of the source, which are not always exact repeats. Equal values may be shown once.
# B1: SDAB22112-1-B6-B05 (VHH)
# VHH: QLQLVESGGGLVQPGGSLRLSCAASRSIFSSYVMAWYRRAPGKKRELVASIANVGSNTDYASFAKGRFTISRDDDKSRDNDKITVYLQMNSLNPEDTAVYYCNAWLGAGSDYWGQGTQVTVSS
# notes: anti-Can f1 alpaca VHH
# B2: SDAB22112-1-C9 (VHH)
# VHH: QLQLVESGGGLVQPGGSLRLSCVGSGFTFSLASMGWYRQAPGKEREWVASISSLDASTNYADSVKGRFTISRDNAKRMVYLQMNNLKSEDTAVYYCKAMNYWGKGTQVTVSS
# notes: anti-Can f1 alpaca VHH
# B3: SDAB22110-1-1-B9-1: anti-Fel d1 VHH clone, SEQ ID NO: 50 (protein)
# VHH: DVQLVESGGGWVQPGGSLRLSCAASGFTFTSYALSWVRQAPGKGLEWVSLADARGTSTTYADSVKGRFTISKDNPRNTLYLLMNSLKPEDTAVYYCTKGFDGNWYPDYDYWGQGTQVTVSS
# B4: SDAB22112-2-B06 (VHH)
# VHH: QVQLVESGGGLVQPGGSLRLSCAASGFTFRLAAMGWYRQAPEKEREWVASITGPGTDTNYADSVKGRFTVSRDNAKNTVYLQMNSLKPEDTAVYYCRGMGYWGKGTLVTVSS
# notes: anti-Can f1 alpaca VHH
# B5: Can f2-His: recombinant His-tagged dog allergen Can f2 (protein)
# chain: QEGNHEEPQGGLEELSGRWHSVALASNKSDLIKPWGHFRVFIHSMSAKDGNLHGDILIPQDGQCEKVSLTAFKTATSNKFDLEYWGHNDLYLAEVDPKSYLILYMINQYNDDTSLVAHLMVRDLSRQQDFLPAFESVCEDIGLHKDQIVVLSDDDRCQGSRD
# modifications: left off: small tags and cut ends
# B6: SDAB22112-1-D12 (VHH)
# VHH: AVQLVDSGGGLVQAGGSLRLACAASGRTFDTYAVGWFRQAPGKERDVVASITWTSGSTWYADFVKGRFTISKDNAKNTVYLQMNNLSPEDTAVYYCGARNQIYTRWDSWGQGTQVTVSS
# notes: anti-Can f1 alpaca VHH
# B7: Der p2-His: recombinant His-tagged dust mite allergen Der p2 (protein)
# chain: DQVDVKDCANHEIKKVLVPGCHGSEPCIIHRGKPFQLEAVFEANQNTKTAKIEIKASIDGLEVDVPGIDPNACHYMKCPLVKGQQYDIKYTWNVPKIAPKSENVVVTVKVMGDDGVLACAIATHAKIRD
# modifications: left off: small tags and cut ends
# Columns and labels:
# [1] = tested on: biotinylated anti-His antibody; assay: Recombinant Can f1-His ELISA binding assay
# Experimental: In order to obtain single variable domain on heavy chain, i.e., VHH, specific for dog allergen Can f1, a recombinant His-tagged Can f1 was prepared, which reached high purity, as shown via SDS-Page Western blotting in FIG. 4. To confirm this, an ELISA was performed measuring optical density when the recombinant Can f1-His is incubated with a biotinylated anti-His antibody. As summarized in Table 4, the recombinant Can f1-His was effectively bound by the antibody.
# [2] = biological target: T1, recombinant His-tagged Can f1 (dog (Canis familiaris), UniProt O18873 19-174); assay: ELISA, antigen coated
# T1 construct: also called Can f1-His; recombinant Can f1; not shown: His tag
# T1 sequence (O18873 19-174 limits assumed): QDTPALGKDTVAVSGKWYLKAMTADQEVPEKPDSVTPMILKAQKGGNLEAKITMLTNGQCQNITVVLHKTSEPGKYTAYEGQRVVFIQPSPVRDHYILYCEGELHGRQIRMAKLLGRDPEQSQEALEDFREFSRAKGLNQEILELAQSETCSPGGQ
# Experimental: (§1) 2 microgram per milliliter (μg/mL) target antigen is coated in a 96-well plate and ELISA assay is performed after incubation with candidate VHHs. The binding EC50 of each clone is calculated using Prism GraphPad. The positive control antibody is involved as an internal control.
# (§2) Isolated VHH clones were further validated by performing an ELISA assay as described in Example 1. Metrics of thermostability including melting temperature (Tₘ), onset temperature (Tₒₙₛₑₜ), and temperature of aggregation (Tagg), were also tested with increasing temperature in the range of 20° C.-95° C. at the speed of 1° C./min. The individual binding curves are shown for each candidate in FIGS. 5B-5H.
# Fel D1 = biological target: T2, Fel D1 (Felis catus, UniProt P30438); assay: ELISA binding assay of anti-Fel d1 VHH clones on Fel D1 epitopes; parameters: species or system cat; settings: Epitope Recognized ENARILKNCVDAKM (SEQ ID NO: 61)
# T2 construct: made in house; host or cells: chemically synthesized peptides
# Experimental: as §1
# Four distinct epitopes of Fel D1 were selected to be used for further identification. Peptides were synthesized for the four epitopes for VHH identification.
# Isolated VHH clones were further validated by performing an ELISA assay as described in Example 1. Binding results are shown in FIG. 15B-15D for the epitope of SEQ ID NO: 61. Binding results are shown in FIG. 16 for the epitope of SEQ ID NO: 59. Binding results are shown in FIG. 17A-17E for the epitope of SEQ ID NO: 60. Binding results are shown in FIG. 18 for the epitope of SEQ ID NO: 58.
# [3] = Thermostability (Tm, Tonset, Tagg) by Nanotemper DSF; format: physicochemical; parameters: key to Tm2 / Tagg / Tm1 / Tm / Tm3 / Tonset / Tonset ø (mean) / Tagg ø (mean): temperatures in °C; settings: for Tm1: first melting point; for Tm2: second melting point
# Experimental: as §2, with “(Tm),” for “(Tₘ),”, “(Tonset),” for “(Tₒₙₛₑₜ),”, “C./min. These measurements were performed using a Nanotemper DSF. When applicable, Tm1 refers to the first melting point observed, Tm2 refers to the second melting point observed, etc., Sequence information for the VHH clones and the binding assay results are summarized in Table 3.” for “C./min.”, “3B-3I.” for “5B-5H.”
# Isolated VHH clones were further validated by performing an ELISA assay as described in Example 1. Metrics of thermostability including melting temperature (Tm), onset temperature (Tonset), and temperature of aggregation (Tagg), were also tested with increasing temperature in the range of 20° C.-95° C. at the speed of 1° C./min. The individual binding curves are shown for each candidate in FIGS. 5B-5H.
# Isolated VHH clones were further validated by performing an ELISA assay as described in Example 1. Metrics of thermostability including melting temperature (Tm), onset temperature (Tonset), and temperature of aggregation (Tagg), were also tested with increasing temperature in the range of 20° C.-95° C. at the speed of 1° C./min. The individual binding curves are shown for each candidate in FIGS. 7B-7P.
# The detailed thermostability graphs used to determine the Tm, Tonset, and Tagg are illustrated in FIGS. 19A-19I and raw data is summarized in Table 23. Any subsequent melting points observed (Tm1, Tm2, Tm3, etc.) are separated by commas.
# [4] = tested on: biotinylated anti-His antibody; assay: Recombinant Can f2-His ELISA binding assay
# Experimental: In order to obtain single variable domain on heavy chain, i.e., VHH, specific for dog allergen Can f2, a recombinant His-tagged Can f2 was prepared, which reached high purity, as shown via SDS-Page Western blotting in FIG. 6. To confirm this, an ELISA was performed measuring optical density when the recombinant Can f2-His is incubated with a biotinylated anti-His antibody. As summarized in Table 7, the recombinant Can f2-His was effectively bound by the antibody.
# [5] = tested on: known Der p2 antibody (clone 6OY4); assay: Recombinant Der p2-His ELISA binding assay
# Experimental: In order to obtain single variable domain on heavy chain, i.e., VHH, specific for dust mite allergen Der p2, a recombinant His-tagged Der p2 was prepared, which reached high purity, as shown via SDS-Page Western blotting in FIG. 2. To confirm this, an ELISA was performed. Briefly, the Der p2-HIS was coated onto an ELISA plate and a known Der p2 antibody (clone 6OY4) was added. A secondary detection antibody capable of binding to the Der p2 antibody was then added. The secondary detection antibody was conjugated to a horseradish peroxidase, which can be utilized to produce a colorimetric reaction. Then, optical density was measured. As summarized in Table 1, the recombinant Der p2-His was effectively bound by the antibody.
# [6] = Average of two replicates, anti-Fel d1 VHH
# [7] = Average of two replicates, anti-Fel d1 VHH, in °C (unit assumed)
# [8] = Replicate 1, in °C (unit assumed)
# [9] = Replicate 2, in °C (unit assumed)
# [10] = anti-Fel d1 VHH, in °C (unit assumed)
# [11] = anti-Can f1 VHH, 20° C.-95° C. at 1° C./min
# [12] = anti-Can f1 VHH, in °C (unit assumed)
molecule,measurement,setting,value
Can f1-His: recombinant His-tagged dog allergen Can f1,OD at 450 nm,[1]; Can f1-His Concentration 0.00064 μg/mL,0.07 and 0.11
same,OD at 450 nm,[1]; Can f1-His Concentration 0.0032 μg/mL,0.09 and 0.11
same,OD at 450 nm,[1]; Can f1-His Concentration 0.016 μg/mL,0.09 and 0.12
same,OD at 450 nm,[1]; Can f1-His Concentration 0.08 μg/mL,0.15 and 0.16
same,OD at 450 nm,[1]; Can f1-His Concentration 0.4 μg/mL,0.21 and 0.24
same,OD at 450 nm,[1]; Can f1-His Concentration 2 μg/mL,0.95 and 1.03
same,OD at 450 nm,[1]; Can f1-His Concentration 10 μg/mL,2.84 and 2.92
B1,EC50,[2],8.42 µg/mL
B2,EC50,[2],13.1 µg/mL
B3,EC50,Fel D1,14.440 µg/mL
same,Tagg ø (mean),[3]; [6],41.73
same,Tonset ø (mean),[3]; [6],42.07
same,"Tm ø (mean), first melting point (Tm1)",[3]; [7],54.03
same,"Tm ø (mean), second melting point (Tm2)",[3]; [7],63.20
same,Tagg,[3]; Replicate 1,41.73
same,Tonset,[3]; Replicate 1,42.11
same,"Tm, first melting point (Tm1)",[3]; [8],53.95
same,"Tm, second melting point (Tm2)",[3]; [8],63.26
same,Tagg,[3]; Replicate 2,41.73
same,Tonset,[3]; Replicate 2,42.04
same,"Tm, first melting point (Tm1)",[3]; [9],54.10
same,"Tm, second melting point (Tm2)",[3]; [9],63.15
same,Tagg,[3]; anti-Fel d1 VHH,41.73
same,aggregates,[3]; anti-Fel d1 VHH,Possible
same,Tm1,[3]; [10],54.03
same,Tm2,[3]; [10],63.20
B4,EC50,[2],0.144 µg/mL
same,Tagg,[3]; [11],48.00
same,Tm1,[3]; [12],56.38
same,Tm2,[3]; [12],63.74
same,Tm3,"[3]; anti-Can f1 VHH, third melting point, in °C (unit assumed)",70.13
B5,OD at 450 nm,[4]; Can f2-His Concentration 0.00064 μg/mL,0.10 and 0.11
same,OD at 450 nm,[4]; Can f2-His Concentration 0.0032 μg/mL,0.11
same,OD at 450 nm,[4]; Can f2-His Concentration 0.016 μg/mL,0.10 and 0.11
same,OD at 450 nm,[4]; Can f2-His Concentration 0.08 μg/mL,0.12 and 0.13
same,OD at 450 nm,[4]; Can f2-His Concentration 0.4 μg/mL,0.22 and 0.19
same,OD at 450 nm,[4]; Can f2-His Concentration 2 μg/mL,0.57 and 0.65
same,OD at 450 nm,[4]; Can f2-His Concentration 10 μg/mL,1.12 and 1.07
B6,EC50,[2],4.01 µg/mL
same,Tagg,[3]; [11],49.15
same,Tm,"[3]; anti-Can f1 VHH, single melting point, in °C (unit assumed)",57.78
B7,OD at 450 nm,[5]; Der p2-His Concentration 0.00064 μg/mL,0.07 and 0.09
same,OD at 450 nm,[5]; Der p2-His Concentration 0.0032 μg/mL,0.09 and 0.10
same,OD at 450 nm,[5]; Der p2-His Concentration 0.016 μg/mL,0.11 and 0.12
same,OD at 450 nm,[5]; Der p2-His Concentration 0.08 μg/mL,0.38 and 0.35
same,OD at 450 nm,[5]; Der p2-His Concentration 0.4 μg/mL,1.31 and 1.37
same,OD at 450 nm,[5]; Der p2-His Concentration 2 μg/mL,4.06 and 4.02
same,OD at 450 nm,[5]; Der p2-His Concentration 10 μg/mL,4.61 and 4.57
